What was measured:
Assay in all cases: optical tweezers force spectroscopy; single-chain clamp held by two 777-bp DNA handles between streptavidin on a biotinylated quartz slide and an anti-digoxigenin-coated 2 µm bead in the laser trap; stage moved at 100 nm/s; trap stiffness 0.15 pN/nm; buffer B (100 mM sodium phosphate, 150 mM sodium chloride, pH 7.2); rupture of the one subunit-subunit interface that can open within the chain
[1] = target: single-chain S. cerevisiae PCNA with cysteines at K107 (first subunit) and F185 (third subunit) (S. cerevisiae)
[2] = target: single-chain E. coli β-clamp with cysteines at G102 (first subunit) and E298 (second subunit) (E. coli)
[3] = target: single-chain E. coli β-clamp with cysteines at E64 (first subunit) and E314 (second subunit) (E. coli)
[4] = target: single-chain S. cerevisiae PCNA with cysteines at D122 (first subunit) and D223 (third subunit) (S. cerevisiae)

“single-chain S. cerevisiae PCNA with cysteines at K107 (first subunit) and F185 (third subunit)” gave a rupture force of the subunit interface [1] of 1.7 pN.
For “single-chain E. coli β-clamp with cysteines at G102 (first subunit) and E298 (second subunit)”, the rupture force of the subunit interface [2] was 12 pN.
“single-chain E. coli β-clamp with cysteines at E64 (first subunit) and E314 (second subunit)” was tested, and the rupture force of the subunit interface [3] was 5.8 pN.
Substance “single-chain S. cerevisiae PCNA with cysteines at D122 (first subunit) and D223 (third subunit)” has a rupture force of the subunit interface [4] of 11 pN.
